Assay results as given in the supplement of paper PMC10471632, “Protein engineering and iterative multimodule optimization for vitamin B6 production in Escherichia coli” (Nature Communications, 2023).
± gives the standard deviation of the averaged measurements.

B1: library; numbered along this chain (parent)
chain: MAELLLGVNIDHIATLRNARGTAYPDPVQAAFIAEQAGADGITVHLREDRRHITDRDVRILRQTLDTRMNLEMAVTEEMLAIAVETKPHFCCLVPEKRQEVTTEGGLDVAGQRDKMRDACKRLADAGIQVSLFIDADEEQIKAAAEVGAPFIEIHTGCYADAKTDAEQAQELARIAKAATFAASLGLKVNAGHGLTYHNVKAIAAIPEMHELNIGHAIIGRAVMTGLKDAVAEMKRLMLEARG

Variants of: B1
Test: pyridoxine titer in culture supernatant of strain expressing the PdxJ variant; higher = more PN produced (higher in vivo pathway activity of the PdxJ variant)
Details: host strain: E. coli LL006; 48 h; temperature: 37 °C; FM1.4
Method: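 Rosetta-designed single to quadruple mutants of E. coli PdxJ (PNP synthase) were expressed from pRSFDuet-1 in the engineered chassis E. coli LL006 (MG1655 ΔpdxH::pdxST, pta::Eme_pdxP). Strains were grown in 24 deep-well plates in 2 mL FM1.4 glycerol medium at 37 °C and 800 rpm for 48 h. Extracellular pyridoxine (PN) titer was quantified by HPLC with fluorescence detection; two biological replicates, with the WT pdxJ strain (LL137, about 0.5 mg/L) as control.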

Row | Variant | pyridoxine titer [mg/L]
1 | MAELLLWVNLDHIATLRNARGTAYPDPVQAAFIAEQAGADGITVHLREDRRHITDRDVRILRQTLDTRMNLEMAVTEEMLAIAVETKPHFCCLVPEKRQEVTTEGGLDVAGQRDKMRDACKRLADAGIQVSLFIDADEEQIKAAAEVGAPFIEIHTGCYADAKTDAEQAQELARIAKAATFAASLGLKVNAGHGLTYHNVKAIAAIPEMHELNIGHALIGRAVMTGLKDAVAEMKRLMLEARG [G7W I10L I218L] | 0.2 ± 0.014
2 | MAELLLGVNLDHIATLRNARGTTYPDPVQAAFIAEQAGADGITVHLREDRRHITDRDVRILRQTLDTRMNLEMAVTEEMLAIAVETKPHFCCLVPEKRQEVTTTGGLDVAGQRDKMRDACKRLADAGIQVSLFIDADEEQIKAAAEVGAPFIEIHTGCYADAKTDAEQAQELARIAKAATFAASLGLKVNAGHQLTYHNVKAIAAIPEMHELNIGHAIIGRAVMTGLKDAVAEMKRLMLEARG [I10L A23T E104T G194Q] | 0.545 ± 0.21
3 | MAELLLGVNLDHIATLRNRRGVTYPDPVQAAFIAEQAGADGITVHLREDRRHITDRDVRILRQTLDTRMNLEMAVTEEMLAIAVETKPHFCCLVPEKRQEVTTEGGLDVAGQRDKMRDACKRLADAGIQVSLFIDADEEQIKAAAEVGAPFIEIHTGCYADAKTDAEQAQELARIAKAATFAASLGLKVNAGHGLTYHNVKAIAAIPEMHELNIGHAIIGRAVMTGLKDAVAEMKRLMLEARG [I10L A19R T22V A23T] | 0.561 ± 0.17
4 | MAELLLGVNLDHIATLRNARGTTYPDPVQAAFIAEQAGADGITVHLREDRRHITDRDVRILRQTLDTRMNLEMAVTEEMLAIAVETKPHFCCLVPEKRQEVTTEGGLDVAGQRDKMRDACKRLADAGIQVSLFIDADEEQIKAAAEVGAPFIEIHTGCYADAKTDAEQAQELARIAKAATFAASLGLKVNAGHCLTYHNVKAIAAIPEMHELNIGHAIIGRAVMTGLKDAVAEMKRLMLEARG [I10L A23T G194C] | 1.27 ± 0.028
5 | MAELLLLVNIDHIATLRNARGTAYPDPVQAAFIAEQAGADGITVHLREDRRHITDRDVRILRQTLDTRMNLEMAVTEEMLAIAVETKPHFCCLVPEKRQEVTTTGGLDVAGQRDKMRDACKRLADAGIQVSLFIDADEEQIKAAAEVGAPFIEIHTGCYADAKTDAEQAQELARIAKAATFAASLGLKVNAGHGLTYHNVKAIAAIPEMHELNIGHAIIGRAVMTGLKDAVAEMKRLMLEARG [G7L E104T] | 0.65 ± 0.014
6 | MAELLLGVNLDHIATLRNARGTAYPDPVQAAFIAEQAGADGITVHLREDRRHITDRDVRILRQTLDTRMNLEMAVTEEMLAIAVETKPHFCCLVPEKRQEVTTEGGLDVAGQRDKMRDACKRLADAGIQVSLFIDADEEQIKAAAEVGAPFIEIHTGCYADAKTDAEQAQELARIAKAATFAASLGLKVNAGHGLTYHNVKAIAAIPEMHELNIGHAIIGRAVMTGLKDAVAEMKRLMLEARG [I10L] | 2.82 ± 0.43
7 | MAELLLGVNLDHIATLRNLRGTTYPDPVQAAFIAEQAGADGITVHLREDRRHITDRDVRILRQTLDTRMNLEMAVTEEMLAIAVETKPHFCCLVPEKRQEVTTEGGLDVAGQRDKMRDACKRLADAGIQVSLFIDADEEQIKAAAEVGAPFIEIHTGCYADAKTDAEQAQELARIAKAATFAASLGLKVNAGHGLTYHNVKAIAAIPEMHELNIGHAIIGRAVMTGLKDAVAEMKRLMLEARG [I10L A19L A23T] | 0.2 ± 0.028
8 | MAELLLLVNIDHIATLRNARGTAYPDPVQAAFIAEQAGADGITVHLREDRRHITDRDVRILRQTLDTRMNLEMAVTEEMLAIAVETKPHFCCLVPEKRQEVTTEGGLDVAGQRDKMRDACKRLADAGIQVSLFIDADEEQIKAAAEVGAPFIEIITGCYADAKTDAEQAQELARIAKAATFAASLGLKVNAGHGLTYHNVKAIAAIPEMHELNIGHAIIGRAVMTGLKDAVAEMKRLMLEARG [G7L H155I] | 0.72 ± 0.071
9 | MAELLLMVNIDHIATLRNARGTAYPDPVQAAFIAEQAGADGITVHLREDRRHITDRDVRILRQTLDTRMNLEMAVTEEMLAIAVETKPHFCCLVPEKRQEVTTEGGLDVAGQRDKMRDACKRLADAGIQVSLFIDADEEQIKAAAEVGAPFIEIHTGCYADAKTDAEQAQELARIAKAATFAASLGLKVNAGHGLCYHNVKAIAAIPEMHEINIGHAIIGRAVMTGLKDAVAEMKRLMLEARG [G7M T196C L212I] | 6.32 ± 1.8
10 | MAELLLGVNLDHIATLRNARGTTYPDPVQAAFIAEQAGADGITVHLREDRRHITDRDVRILRQTLDTRMNLEMAVTEEMLAIAVETKPHFCCLVPEKRQELTTTGGLDVAGQRDKMRDACKRLADAGIQVSLFIDADEEQIKAAAEVGAPFIEIHTGCYADAKTDAEQAQELARIAKAATFAASLGLKVNAGHGLTYHNVKAIAAIPEMHELNIGHAIIGRAVMTGLKDAVAEMKRLMLEARG [I10L A23T V101L E104T] | 0.257 ± 0.014
11 | MAELLLGVNLDHIATLRNARGTTYPDPVQAAFIAEQAGADGITVHLREDRRHITDRDVRILRQTLDTRMNLEMAVTEEMLAIAVETKPHFCCLVPEKRQEVTTTGGLDVAGQRDKMRDACKRLADAGIQVSLFIDADEEQIKAAAEVGAPFIEIHTGCYADAKTDAEQAQELARIAKAATFAASLGLKVNAGHGLTYHNVKAIAAIPEMHELNIGHAICGRAVMTGLKDAVAEMKRLMLEARG [I10L A23T E104T I219C] | 3.27 ± 0.22
12 | MAELLLLVNIDHIATLRNARGTAYPDPVQAAFIAEQAGADGITVHLREDRRHITDRDVRILRQTLDTRMNLEMAVTEEMLAIAVETKPHFCCLVPEKRQEVTTEGGLDVAGQRDKMRDACKRLADAGIQVSLFIDADEEQIKAAAEVGAPFIEIHTGCYADAKTDAEQAQELARIAKAATFAASLGLKVNAGHGLTYHNVKAIAAIPEMHELNIGHAIIGRAVMTGLKDAVAEMKRLMLEARG [G7L] | 0.9583 ± 0.0052
